Test results from the supplement of paper PMC9112550, “Optimization of the antimicrobial peptide Bac7 by deep mutational scanning” (BMC Biology, 2022).

Test system: Escherichia coli TOP10
Experiment: shrunken log2 fold change of peptide-encoding DNA abundance (4.5 h post-induction vs induction); higher = less antimicrobial activity (less host growth inhibition)
Conditions: time post-induction: 4.5 h; library: site-saturation at positions 5, 18, 19, 20
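Note: peptides expressed intracellularly from a pBAD plasmid library in pooled LB shake-flask culture, induced with 0.3% L-arabinose, DNA abundance read by NGS, three biological replicates, DESeq2 with apeglm shrinkage.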

Sequence | shrunken log2 fold change
RRIRGRPPRLPRPRPRPSFPPRP | -0.0674
RRIRARPPRLPRPRPRPFCPPRP | 0.11
RRIRLRPPRLPRPRPRPMPNPRP | -0.0177
RRIRQRPPRLPRPRPRPYPEPRP | -0.0761
RRIRTRPPRLPRPRPRPCMLPRP | 0.0676
RRIRKRPPRLPRPRPRPRLQPRP | 0.475
RRIRLRPPRLPRPRPRPYTYPRP | -0.235
RRIRNRPPRLPRPRPRPMLFPRP | -0.301
RRIRTRPPRLPRPRPRPVEDPRP | 0.0389
RRIRWRPPRLPRPRPRPSQWPRP | -0.0949
RRIRDRPPRLPRPRPRPTLMPRP | 0.114
RRIRLRPPRLPRPRPRPCPRPRP | 0.0559
RRIRWRPPRLPRPRPRPTMEPRP | 0.00667
RRIRRRPPRLPRPRPRPKTLPRP | 0.146
RRIRTRPPRLPRPRPRPYEFPRP | -0.202
RRIRARPPRLPRPRPRPRAYPRP | 0.178
RRIRFRPPRLPRPRPRPYPQPRP | -0.356
RRIRARPPRLPRPRPRPTLVPRP | 0.562
RRIRDRPPRLPRPRPRPCEPPRP | 0.194
RRIRCRPPRLPRPRPRPPPNPRP | 1.27
RRIRVRPPRLPRPRPRPMVGPRP | 0.0148
RRIRNRPPRLPRPRPRPKIGPRP | -0.0153
RRIRCRPPRLPRPRPRPMSMPRP | -0.212
RRIRSRPPRLPRPRPRPEFSPRP | 0.203
RRIRGRPPRLPRPRPRPRMCPRP | 0.197

Sequence | shrunken log2 fold change
RRIRPRPPRLPRPRPRPNLRPRP | 0.197
RRIRSRPPRLPRPRPRPVTKPRP | -0.00403
RRIRSRPPRLPRPRPRPFSIPRP | -0.379
RRIRDRPPRLPRPRPRPEQDPRP | 1.39
RRIRARPPRLPRPRPRPQEAPRP | 0.197
RRIRDRPPRLPRPRPRPNCDPRP | -0.144
RRIRYRPPRLPRPRPRPYEEPRP | -0.0354
RRIRIRPPRLPRPRPRPWLMPRP | -0.202
RRIRQRPPRLPRPRPRPCEAPRP | 0.00535
RRIRRRPPRLPRPRPRPVYHPRP | -0.0449
RRIRRRPPRLPRPRPRPDMFPRP | 0.0219
RRIRHRPPRLPRPRPRPCPIPRP | -0.0539
RRIRCRPPRLPRPRPRPLDPPRP | -0.122
RRIRRRPPRLPRPRPRPSNTPRP | -0.172
RRIRQRPPRLPRPRPRPFGGPRP | 0.0432
RRIRVRPPRLPRPRPRPNNIPRP | -0.937
RRIRTRPPRLPRPRPRPAPHPRP | 0.22
RRIRKRPPRLPRPRPRPGACPRP | 0.237
RRIRHRPPRLPRPRPRPMPIPRP | 0.113
RRIRWRPPRLPRPRPRPRIRPRP | 0.0716
RRIRIRPPRLPRPRPRPTDRPRP | -0.192
RRIRIRPPRLPRPRPRPATRPRP | 0.19
RRIRGRPPRLPRPRPRPCTRPRP | 0.0901
RRIRSRPPRLPRPRPRPIRAPRP | 0.106
RRIRPRPPRLPRPRPRPQWLPRP | -0.0256
